The results in this text go back to patent US8242240B2, “Anti-inflammatory compounds and uses thereof” (Yale University, priority 2000, dated 2012).

In one experiment the target is T1, endogenous IKK complex (Homo sapiens, UniProt Q9Y6K9).
T1 construct: wild-type but not mutant disrupted the formation of the endogenous IKK complex; endogenous in cells; host or cells: HeLa
Kind of experiment: Anti-NEMO immunoprecipitation of the IKK complex from peptide-treated HeLa cells. As to conditions: peptide 200 μM, anti-NEMO IP, anti-IKKβ blot. It is filed as cell-based. As to the method: (A) Sequences of wild-type (SEQ ID NO:18) and mutant (SEQ ID NO:19 forms of IKKβ NBD peptide. (B) GST-pull-down analysis was performed using either GST-NEMO-in vitro translated IKKβ (upper panel) or GST-IKKβ-(644-756)-in vitro translated NEMO (lower panel). The assay was performed in the absence (no peptide) or presence of increasing concentrations ([…], 500 or 1000 μM) of either mutant (MUT) (SEQ ID NO:19) or wild-type (WT) NBD (SEQ ID NO:18). (C) HeLa cells were incubated with either peptide (200 μM) for the times indicated. Following lysis, the IKK complex was immunoprecipitated using anti-NEMO and the resulting immunoblot probed with anti-IKKβ. (D) Gel image showing anti-NEMO immunoprecipitation. (E) Gel image showing anti-FLAG immunoblot. (F) HeLa cells were incubated for three hours with increasing concentrations: 50, 100 or 200 μM) of each peptide followed by treatment for fifteen minutes with TNFα (10 ng/ml) as indicated (+). Following lysis, nuclear extracts were made and 10 μg of protein from each sample was used for EMSA using a specific [^32P]-labeled κB-site probe. (G) Gel image showing anti-Phospho-C-Jun immunoblot and anti-β-Actin immunoblot. […] Subsequently the cells were either treated with TNFα (10 ng/ml) as indicated (toe panel) or left untreated (bottom panel) for a further four hours after which NF-κB activation was measured by luciferase assay. […]

The next experiment relates to NF-κB. The experiment is described as follows: EMSA of nuclear extracts from TNFα-treated HeLa cells. It is filed as cell-based, human. As to conditions: peptide 50, 100 or 200 μM 3 h, TNFα 10 ng/ml 15 min.
Another experiment has as its target T2, IKKβ-NEMO interaction (Homo sapiens, UniProt Q9Y6K9).
T2 construct: bacterially expressed version of full length NEMO fused at its NH2-terminus to glutathione S-transferase; made in house; host or cells: bacteria (GST-NEMO); in vitro translation (IKKβ)
The experiment is described as follows: In vitro GST pull-down of IKKβ/NEMO in the presence of NBD peptides. It is filed as binding. As to conditions: peptide 125, 500 or 1000 μM. On the procedure:
(A) Sequences of wild-type (SEQ ID NO:18) and mutant (SEQ ID NO:19 forms of IKKβ NBD peptide. (B) GST-pull-down analysis was performed using either GST-NEMO-in vitro translated IKKβ (upper panel) or GST-IKKβ-(644-756)-in vitro translated NEMO (lower panel). The assay was performed in the absence (no peptide) or presence of increasing concentrations ([…], 500 or 1000 μM) of either mutant (MUT) (SEQ ID NO:19) or wild-type (WT) NBD (SEQ ID NO:18). (C) HeLa cells were incubated with either peptide (200 μM) for the times indicated. Following lysis, the IKK complex was immunoprecipitated using anti-NEMO and the resulting immunoblot probed with anti-IKKβ. (D) Gel image showing anti-NEMO immunoprecipitation. (E) Gel image showing anti-FLAG immunoblot. (F) HeLa cells were incubated for three hours with increasing concentrations: 50, 100 or 200 μM) of each peptide followed by treatment for fifteen minutes with TNFα (10 ng/ml) as indicated (+). Following lysis, nuclear extracts were made and 10 μg of protein from each sample was used for EMSA using a specific [^32P]-labeled κB-site probe. (G) Gel image showing anti-Phospho-C-Jun immunoblot and anti-β-Actin immunoblot. (H) HeLa cells were transfected for forty-eight hours with pBIIX-luciferase then incubated for two hours in the absence (control) or presence of mutant or wild-type NBD peptide (100 and 200 μM of each). Subsequently the cells were either treated with TNFα (10 ng/ml) as indicated (toe panel) or left untreated (bottom panel) for a further four hours after which NF-κB activation was measured by luciferase assay.
The sequences of the two NBD peptides used in t its study were [[…]][…] (wild-type) (SEQ ID NO: 18) and [[…]][…] (mutant) (SEQ ID NO: 19; FIG. 5A). The antennapedia homeodomain sequence (Derossi et al., (1994) J. Biol. Chem. 269, 10444-10450; U.S. Pat. No. 5,888,762; U.S. Pat. No. 6,015,787; U.S. Pat. No. 6,080,724) is bracketed and the positions of the W to A mutations are underlined. Both peptides were dissolved in DMSO to a stock concentration of 20 mM. For all experiments DMSO alone controls were no different from no peptide controls.
The mutant was identical except that the tryptophan residues (W739 and W741) in the NBD were mutated to alanine. […] To test the ability of the NBD peptides to enter cells and inhibit the IKKβ-NEMO interaction, HeLa cells were incubated with the peptides for different time periods and immunoprecipitated the IKK complex using anti-NEMO. In agreement with the in vitro data (FIG. 5B), wild-type but not mutant disrupted the formation of the endogenous IKK complex (FIG. 5C).

The subject of the next experiment is E-selectin. Kind of experiment: E-selectin expression in primary HUVEC (FACS). The experiment is classed as cell-based, human. As to conditions: for TNFα-induced expression of E-selectin: peptide 100 μM 2 h, TNFα 10 ng/ml 6 h. On the procedure:
(A) Primary HUVEC were pre-incubated for two hours with wild-typo (middle) or mutant (bottom) NBD peptides (100 μM) then stimulated with TNFα (10 ng/ml) for a further six hours. Control cells received no peptide. Cells were stained with either anti-E-selectin (H4/18) or a non-binding control antibody (K16/16) and expression was measured FACS (FACSort, Becton Dickinson). The profiles show E-selectin staining in the absence (shaded) and presence (solid line) of TNFα and control antibody staining under the sane conditions (dashed line, no TNFα; dotted line, TNFα). (B) % control release of NO2— in various samples. (C) PMA-induced ear edema in mice topically treated with either vehicle (VEH), dexamethasone (DEX) or NBD peptides was induced and measured as described in Example 8. Data are presented as mean differences in ear thickness ±SD (*=p<0.05 compared with both untreated control and vehicle). (D) The effects of the NBD peptide compared with the effect of dexamethasone (DEX) on Zymosan (ZYM)-induced peritonitis in mice were determined as described again in Example 8. Control mice were injected with phosphate-buffered saline (PBS).
Many proteins involved in the initiation and maintenance of inflammatory responses require NF-κB activation for induced expression of their genes (Ghosh et al., (1998) Annu. Rev. Immunol. 16, 225-260; May & Ghosh, (1998) Immunol. Today 19, 80-88). One such protein, E-selectin, is a leukocyte adhesion molecule expressed on the luminal surface of vascular endothelial cells after activation by pro-inflammatory stimuli such as IL-1 or TNFα (Pober et al., (1986) J. Immunol. […], 1680-1687; Bevilacqua et al., (1987) Proc. Natl. Acad. Sci. USA 84, 9238-9242; Collins et al., (1995) FASEB J. 9, 899-909). Expression of E-selectin and other NF-κB-dependent adhesion molecules is crucial for the arrest and recruitment of leukocytes into sites of acute and chronic inflammation. […]

T2 sequence (Q9Y6K9 whole entry, the tested form may be a part): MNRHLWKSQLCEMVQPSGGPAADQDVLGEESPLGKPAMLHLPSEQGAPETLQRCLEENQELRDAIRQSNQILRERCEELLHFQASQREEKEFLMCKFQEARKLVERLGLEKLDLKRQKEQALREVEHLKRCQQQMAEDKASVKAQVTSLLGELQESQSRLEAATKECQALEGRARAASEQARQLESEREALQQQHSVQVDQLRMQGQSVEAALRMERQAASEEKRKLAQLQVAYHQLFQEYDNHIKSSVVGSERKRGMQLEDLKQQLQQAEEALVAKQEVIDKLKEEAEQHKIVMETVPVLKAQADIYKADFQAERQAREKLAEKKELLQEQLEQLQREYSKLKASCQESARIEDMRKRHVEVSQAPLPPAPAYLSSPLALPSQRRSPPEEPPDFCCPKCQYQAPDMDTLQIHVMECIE
T1 sequence (Q9Y6K9 whole entry, one chain of several): as the sequence (Q9Y6K9 whole entry, the tested form may be a part) above

As for “[DRQIKIWFQNRRMKWKK]TALDWSWLQTE (DRQIKIWFQNRRMKWKKTALDWSWLQTE; Description of Unknown: Unknown wildtype NBD peptide) [wild-type NBD peptide]”, the “disruption of the formation of the endogenous IKK complex” value with endogenous IKK complex is “disrupted”. The “inhibition of TNFα-induced activation and nuclear translocation of NF-κB (EMSA)” value in the experiment with NF-κB is reported as “inhibited”. Further, in the experiment with IKKβ-NEMO interaction, the “inhibition of in vitro pull-down of [35S]-labeled IKKβ by GST-NEMO” value is given as “dose-dependently inhibited” and the “inhibition of in vitro pull-down of [35S]-labeled NEMO by GST-IKKβ-(644-756)” value is listed as “dose-dependently inhibited”. Besides, the “E-selectin expression in the absence of TNFα” value in the experiment with E-selectin (peptide 100 μM) was “induced low level expression”. Further, the “TNFα-induced expression of E-selectin” value in the experiment with E-selectin is on record as “significantly reduced”.

As to “[DRQIKIWFQNRRMKWKK]TALDASALQTE (DRQIKIWFQNRRMKWKKTALDASALQTE; Description of Artificial Sequence: Synthetic Mutant NBD peptide) [identical to wild-type NBD peptide except W739 and W741 mutated to alanine, reference compound]”, the “disruption of the formation of the endogenous IKK complex” value with endogenous IKK complex is reported as “not”. In the experiment with IKKβ-NEMO interaction, the “inhibition of in vitro pull-down of [35S]-labeled IKKβ by GST-NEMO” value is reported as “not” and the “inhibition of in vitro pull-down of [35S]-labeled NEMO by GST-IKKβ-(644-756)” value is listed as “not”. In addition, the “TNFα-induced expression of E-selectin” value in the experiment with E-selectin is “not”.
